Assay results as given in patent US20080199851A1.
Where “and” joins values, the source holds several entries; their conditions need not be identical. Identical values can stand only once.

How the values were obtained:
[1] = molecular target: Recombinant H5 hemagglutinin; test: lateral-flow sandwich, 3C8 line + 3G4-gold, 60 uL buffer, 25 min
[2] = molecular target: Recombinant H5 hemagglutinin; test: lateral-flow sandwich, 3C8 line + 3G4-gold, 50 uL buffer, 20 min
[3] = molecular target: Recombinant H5 hemagglutinin; test: lateral-flow sandwich, 3C8 line + 3G4-gold, 100 uL buffer, 15 min
[4] = molecular target: Recombinant H5 hemagglutinin; test: lateral-flow sandwich, 3C8 line + 3G4-gold, 70 uL buffer, 15 min
[5] = molecular target: Recombinant H5 hemagglutinin; test: lateral-flow sandwich, 3C8 line + 3G4-gold, 60 uL buffer, 15 min
[6] = molecular target: Recombinant H5 hemagglutinin; test: lateral-flow sandwich, 3C8 line + 3G4-gold, 70 uL buffer, 15 min; remark: listed apart in the source
[7] = molecular target: Recombinant H5 hemagglutinin; test: lateral-flow sandwich, 3C8 line + 3G4-gold, 50 uL buffer, 15 min
[8] = molecular target: Recombinant H5 hemagglutinin; test: lateral-flow sandwich, 3C8 line + 3G4-gold, 60 uL buffer, 15 min; remark: listed apart in the source
[9] = molecular target: Recombinant H5 hemagglutinin; test: lateral-flow sandwich, 3C8 line + 3G4-gold, 100 uL buffer, 20 min
[10] = molecular target: Recombinant H5 hemagglutinin; test: lateral-flow sandwich, 3C8 line + 3G4-gold, 50 uL buffer, 25 min
[11] = molecular target: Recombinant H5 hemagglutinin; test: lateral-flow sandwich, 3C8 line + 3G4-gold, 70 uL buffer, 20 min
[12] = molecular target: Recombinant H5 hemagglutinin; test: lateral-flow sandwich, 3C8 line + 3G4-gold, 70 uL buffer, 30 min
[13] = molecular target: Recombinant H5 hemagglutinin; test: lateral-flow sandwich, 3C8 line + 3G4-gold, 60 uL buffer, 20 min
[14] = molecular target: Recombinant H5 hemagglutinin; test: lateral-flow sandwich, 3C8 line + 3G4-gold, 100 uL buffer, 25 min
[15] = molecular target: Recombinant H5 hemagglutinin; test: lateral-flow sandwich, 3C8 line + 3G4-gold, 80 uL buffer, 25 min
[16] = molecular target: Recombinant H5 hemagglutinin; test: lateral-flow sandwich, 3C8 line + 3G4-gold, 80 uL buffer, 20 min
[17] = molecular target: Recombinant H5 hemagglutinin; test: lateral-flow sandwich, 3C8 line + 3G4-gold, 60 uL buffer, 30 min
[18] = molecular target: Recombinant H5 hemagglutinin; test: lateral-flow sandwich, 3C8 line + 3G4-gold, 50 uL buffer, 15 min; remark: listed apart in the source
[19] = molecular target: Recombinant H5 hemagglutinin; test: lateral-flow sandwich, 3C8 line + 3G4-gold, 80 uL buffer, 30 min
[20] = molecular target: Recombinant H5 hemagglutinin; test: lateral-flow sandwich, 3C8 line + 3G4-gold, 70 uL buffer, 25 min
[21] = molecular target: Recombinant H5 hemagglutinin; test: lateral-flow sandwich, 3C8 line + 3G4-gold, 50 uL buffer, 30 min
[22] = molecular target: Recombinant H5 hemagglutinin; test: lateral-flow sandwich, 3C8 line + 3G4-gold, 100 uL buffer, 30 min
[23] = molecular target: Recombinant H5 hemagglutinin; test: lateral-flow sandwich, 3C8 line + 3G4-gold, 80 uL buffer, 15 min

B1: monoclonal antibody 3C8 (antibody, V domains shown)
VH: QIQLVQSGPELKKPGETVKISCKASGYSFTNYGMNWVKQAPGKGLKWMGWINTYTGEPAYADDFKGRFAFSLETSASTAYLQINNLKNEDTATYFCARWNRDAMDYWGQGTSVTVSS
VL: DIVLTQSPASLAVSLGQRATISCRASESVDSSDNSLMHWYQQKPGQPPKLLIYRASNLESGIPARFSGSGSRTDFTLTINPVEADDVATYYCQQSIGDPPYTFGGGTKLEIKR
Peak Intensity [1]: 68.5 and 66.2
Peak Intensity [2]: 62.3 and 57.3
Peak Intensity [3]: 35.2 and 30.8
Peak Intensity [4]: 45.6 and 42.1
Peak Intensity [5]: 53.5 and 51.6
Peak Intensity [6]: 46.8 and 47.9
Peak Intensity [7]: 55.6 and 51.1
Peak Intensity [8]: 50.2 and 51.2
Peak Intensity [9]: 49.2 and 44.9
Peak Intensity [10]: 63.1 and 55.4
Peak Intensity [11]: 57.9 and 57
Peak Intensity [12]: 60.7 and 63.9
Peak Intensity [13]: 65.7 and 63.8
Peak Intensity [14]: 54.6 and 49.3
Peak Intensity [15]: 59.8 and 64.7
Peak Intensity [16]: 53.7 and 57.9
Peak Intensity [17]: 68.9 and 66.5
Peak Intensity [18]: 56.9 and 57.8
Peak Intensity [19]: 61.5 and 65.4
Peak Intensity [20]: 60.4 and 61.7
Peak Intensity [21]: 62.5 and 62.6
Peak Intensity [22]: 55.6 and 49.8
Peak Intensity [23]: 39.6 and 42.9
